Measurements taken from patent publication US20120004117A1 (FORERUNNER PHARMA RESEARCH, published 2012).

T1: N-terminally HA-tagged TM4SF20 expressed on Ba/F3 cells (TM4SF20_Ba/F3) (human, UniProt Q53R12 2-229)
T1 construct: Four-transmembrane protein on the cell membrane; also called TM4SF20_ntHA; pMCDN2_TM4SF20_ntHA product
T1 sequence: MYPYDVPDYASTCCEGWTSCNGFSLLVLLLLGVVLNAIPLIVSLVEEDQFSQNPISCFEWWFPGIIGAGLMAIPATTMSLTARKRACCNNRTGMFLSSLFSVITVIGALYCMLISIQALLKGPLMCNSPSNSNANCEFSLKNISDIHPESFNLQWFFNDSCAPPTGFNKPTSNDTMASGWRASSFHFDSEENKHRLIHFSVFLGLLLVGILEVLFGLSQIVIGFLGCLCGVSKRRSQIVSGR

T2: human TM4SF20 (Transmembrane 4 L6 family member 20), endogenous (human, UniProt Q53R12 1-229)
T2 construct: Untagged native protein as on A549 lung adenocarcinoma cells and in clinical stomach cancer sections; also called TM4SF20 protein
T2 sequence: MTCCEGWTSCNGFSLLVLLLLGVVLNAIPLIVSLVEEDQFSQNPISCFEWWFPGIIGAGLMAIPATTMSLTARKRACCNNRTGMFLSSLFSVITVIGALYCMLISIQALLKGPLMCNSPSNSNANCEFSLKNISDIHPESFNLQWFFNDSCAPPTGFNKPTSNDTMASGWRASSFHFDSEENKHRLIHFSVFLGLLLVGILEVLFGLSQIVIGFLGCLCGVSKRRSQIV

T3: N-terminally HA-tagged mouse TM4SF20 expressed on CHO DG44 cells (mTM4SF20_CHO) (mouse, UniProt Q9CQY8 2-226)
T3 construct: also called mTM4SF20_ntHA; pCOS2_mTM4SF20_ntHA product
T3 chain: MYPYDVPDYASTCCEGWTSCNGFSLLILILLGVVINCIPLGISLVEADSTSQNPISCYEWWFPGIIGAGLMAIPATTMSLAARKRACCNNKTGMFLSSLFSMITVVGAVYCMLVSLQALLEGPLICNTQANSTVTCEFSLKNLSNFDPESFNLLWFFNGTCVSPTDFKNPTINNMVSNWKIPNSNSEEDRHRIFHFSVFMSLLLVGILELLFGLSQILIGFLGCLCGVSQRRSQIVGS

T4: GST_TM4SF20_C2 (human)
T4 construct: Tested as whole E. coli lysate, denatured, in western blotting; not shown: glutathione S-transferase (GST) tag encoded by the vector pGEX-6P-1 (GE Healthcare), upstream of the BamHI site
T4 chain: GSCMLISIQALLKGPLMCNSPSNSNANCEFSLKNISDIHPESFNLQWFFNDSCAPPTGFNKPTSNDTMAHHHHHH

T5: GST_TM4SF20_C3 (human)
T5 construct: Tested as whole E. coli lysate, denatured, in western blotting; not shown: glutathione S-transferase (GST) tag encoded by the vector pGEX-6P-1 (GE Healthcare), upstream of the BamHI site
T5 chain: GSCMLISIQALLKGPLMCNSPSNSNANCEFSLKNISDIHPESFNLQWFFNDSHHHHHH

T6: N-terminally HA-tagged chimeric TM4SF20 version 1 expressed on CHO DG44 cells (chimeric TM4SF20 ver.1_CHO) (human TM4SF20 with the first loop …, UniProt Q53R12 2-229)
T6 construct: also called chimeric TM4SF20 ver.1_ntHA
T6 chain: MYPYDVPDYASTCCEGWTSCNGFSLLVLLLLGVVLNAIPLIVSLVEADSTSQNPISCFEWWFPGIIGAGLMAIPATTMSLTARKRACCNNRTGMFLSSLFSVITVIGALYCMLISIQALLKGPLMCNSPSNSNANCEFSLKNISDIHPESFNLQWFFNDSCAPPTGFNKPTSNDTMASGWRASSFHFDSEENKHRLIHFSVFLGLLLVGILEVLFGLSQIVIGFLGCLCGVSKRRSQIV

T7: C-terminally HA-tagged TM4SF20 expressed on CHO DG44 cells (TM4SF20_CHO) (human, UniProt Q53R12 1-229)
T7 construct: also called TM4SF20_ctHA; pCOS2_TM4SF20_ctHA product
T7 sequence: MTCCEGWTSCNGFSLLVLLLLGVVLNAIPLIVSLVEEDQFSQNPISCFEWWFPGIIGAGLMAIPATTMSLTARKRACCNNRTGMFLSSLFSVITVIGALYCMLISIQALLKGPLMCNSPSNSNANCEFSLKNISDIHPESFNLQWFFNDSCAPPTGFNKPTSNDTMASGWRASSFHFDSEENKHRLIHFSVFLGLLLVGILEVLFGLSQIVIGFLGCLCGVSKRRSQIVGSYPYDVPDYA

T8: N-terminally HA-tagged chimeric TM4SF20 version 2 expressed on CHO DG44 cells (chimeric TM4SF20 ver.2_CHO) (human TM4SF20 with the second loop …)
T8 construct: also called chimeric TM4SF20 ver.2_ntHA
T8 chain: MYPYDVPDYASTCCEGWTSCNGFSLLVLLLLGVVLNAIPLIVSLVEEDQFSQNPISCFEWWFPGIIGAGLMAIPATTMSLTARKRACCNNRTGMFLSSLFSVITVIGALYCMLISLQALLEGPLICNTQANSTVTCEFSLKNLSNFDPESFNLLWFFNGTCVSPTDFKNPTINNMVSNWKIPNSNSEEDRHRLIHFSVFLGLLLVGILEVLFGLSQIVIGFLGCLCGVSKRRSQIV


Assays:
[1] = molecular target: T1, N-terminally HA-tagged TM4SF20 …; assay: flow cytometry screening of hybridoma supernatants on TM4SF20_Ba/F3 against parental Ba/F3 cells
[2] = molecular target: T2, human TM4SF20 (Transmembrane 4 L6 …); assay: flow cytometry, purified antibody at 10 µg/mL on A549 cells
Experimental: (§1) Next, 5×10⁴ cells suspended in FACS buffer were dispensed to a U-bottom 96-well plate. The anti-TM4SF20 antibody (hybridoma culture supernatant) or the HAT medium as a negative control was added thereto at a concentration of 10 μg/mL. After reaction on ice for 1 hour, the cells were washed with FACS buffer. Next, an FITC-labeled anti-mouse antibody (Goat F(ab′)₂ Fragment Anti-mouse IgG (H+L)-FITC, Beckman Coulter, Inc.) was added thereto as a secondary antibody and reacted on ice for 1 hour. The cells were washed with FACS buffer, then suspended in FACS buffer supplemented with 10 μg/mL propidium iodide (PI, Sigma-Aldrich Corp.), and assayed using a flow cytometer. The assay data was analyzed as to PI-negative cell populations using CELLQuest software. As a result, all the clones bound to TM4SF20_CHO but to neither […] nor DG44 cells (FIG. 4).
Each anti-TM4SF20 antibody prepared in Example 2 was used to evaluate TM4SF20 expression on the cell membrane of a human cancer cell line by flow cytometry. A primary antibody used was the anti-TM4SF20 antibody (purified antibody) or a negative control antibody (mIgG2a, BD Biosciences Pharmingen). […] The flow cytometry was conducted in the same way as in Example 3 except for the primary antibody used at a concentration of 10 μg/mL. As a result, the expression of TM4SF20 was confirmed on the cell membrane of the A549 cells (FIG. 9)

[3] = molecular target: T3, N-terminally HA-tagged mouse TM4SF20 …; assay: flow cytometry, hybridoma culture supernatant on mTM4SF20_CHO cells
Experimental: as §1

[4] = molecular target: T4, GST_TM4SF20_C2; assay: western blotting of E. coli whole cell lysate, purified antibody
Experimental: (§2) Each construct was expressed using BL21 (DE3) Competent Cells (Takara Bio Inc.). The whole cell lysate was electrophoresed by SDS-PAGE and then transferred to a PVDF membrane (Immobilon-P, Millipore Corp.) for western blotting. The construct was detected using the anti-TM4SF20 antibody (purified antibody) at a concentration of 5 μg/mL, a 3000 fold-diluted secondary antibody (HRP-anti mIgG, GE Healthcare Bio-Sciences Corp.), and ECL Western Blotting Detection Reagents (GE Healthcare Bio-Sciences Corp). The expression of each construct was confirmed using an anti-GST antibody (GE Healthcare Bio-Sciences Corp.) and an anti-His antibody (Santa Cruz Biotechnology, Inc.). Secondary antibodies used were a HRP-labeled anti-goat antibody (Invitrogen Corp.) and a HRP-labeled anti-rabbit antibody (GE Healthcare Bio-Sciences Corp.), respectively.

[5] = molecular target: T5, GST_TM4SF20_C3; assay: as above
Experimental: as §2

[6] = molecular target: T6, N-terminally HA-tagged chimeric TM4SF20 …; assay: flow cytometry, hybridoma culture supernatant on chimeric TM4SF20 ver.1_CHO cells
Experimental: as §1
(§3) Next, the binding of the anti-TM4SF20 antibody (hybridoma culture supernatant) was confirmed by flow cytometry in the same way as in Example 3. As a result, all the clones bound to chimeric TM4SF20 ver.1_CHO but to neither chimeric TM4SF20 ver.2_CHO nor DG44 cells (FIG. 6).

[7] = molecular target: T7, C-terminally HA-tagged TM4SF20 …; assay: flow cytometry, hybridoma culture supernatant at 10 µg/mL on TM4SF20_CHO cells
Experimental: as §1

[8] = molecular target: T8, N-terminally HA-tagged chimeric TM4SF20 …; assay: flow cytometry, hybridoma culture supernatant on chimeric TM4SF20 ver.2_CHO cells
Experimental: as §1, §3

binding result [1] | binding result [2] | binding result [3] | binding result [4] | binding result [5] | binding result [6] | binding result [7] | binding result [8] | Binder
binds | binds | no binding (tested: 10 µg/mL) | no binding (tested: 5 µg/mL) | no binding (tested: 5 µg/mL) | binds | binds | no binding | anti-TM4SF20 antibody B11 (antibody, mouse IgG1, V domains shown, also called clone B11) VH: EVQLQQSGPELVKPGASVKMSCKASGYRFTNYVMHWVKQKPGQGLEWIGYINPYNAGTKYNEKFKGKATLTSDKSSSTAYMELSSLTSEDSAVYYCARGAGWSLRFADWGQGTLVTVSA VL: DILMTQSPSSMSVSLGDTVSITCHASQGISSNIGWLQQKPGKSFKGLIYLATNLEDGVPSRFSGSGSGADYSLTITSLESEDFAVYYCVQYSQFPRTFGGGTKLEIK
 |  | no binding (tested: 10 µg/mL) | no binding (tested: 5 µg/mL) | no binding (tested: 5 µg/mL) |  |  | no binding | anti-TM4SF20 antibody B8 (antibody, mouse IgG2b, V domains shown, also called clone B8) VH: RVQLKESGPDLVQPSQTLSLTCTVSGFSLTNYGVHWIRQPPGKGLEWVGTVGWDDKKYYNSVLKSRLSINRDTSKNQVFLKLSSLQTEDTAMYYCTPYYDGSPYVMDYWGQGTSVTVSS VL: DIVMSQSPSSLAVSAGEKVTMTCKSSQSLFDSGTRKNYLAWYQQKPGQSPKLLIYWASTRESGVPDRFTGSGSGTDFTLTISSVQAEDLAVYYCKQSYYLLTFGAGTKLELK
 |  | no binding (tested: 10 µg/mL) | no binding (tested: 5 µg/mL) | no binding (tested: 5 µg/mL) |  |  | no binding | anti-TM4SF20 antibody B15 (antibody, mouse IgG2a, V domains shown, also called clone B15) VH: RVQLKESGPDLVQPSQTLSLTCTVSGFSLTNYGVHWIRQPPGKGLEWVGTVGWDDKKYYNSVLKSRLSINRDTSKNQVFLKLSSLQTEDTAMYYCTPYYDGSPYVMDYWGQGTSVTVSS VL: DIVMSQSPSSLAVSAGEKVTMTCKSSQSLFDSGTRKNYLAWYQQKPGQSPKLLIYWASTRESGVPDRFTGSGSGTDFTLTISSVQAEDLAVYYCKQSYYLLTFGAGTKLELK
binds | binds | no binding (tested: 10 µg/mL) | no binding (tested: 5 µg/mL) | no binding (tested: 5 µg/mL) | binds | binds | no binding | anti-TM4SF20 antibody B12 (antibody, mouse IgG1, V domains shown, also called clone B12) VH: QVQLKESGPDLVQPSQTLSLTCTVSGFSLTNYGVHWVRQPPGKGLEWVGTMGWDDKKYYNSALKSRLSISRDTSKNQVFLKLSSLQTEDTAMYYCTRNVNFDYWGQGTTLTVSS VL: not shown
 |  | no binding (tested: 10 µg/mL) | no binding (tested: 5 µg/mL) | no binding (tested: 5 µg/mL) |  |  | no binding | anti-TM4SF20 antibody C7 (antibody, mouse IgG1, V domains shown, also called clone C7) VH: QVQLKESGPDLVQPSQTLSLTCTVSGFSLSSYGVHWVRQPPGKGLEWVGTMGWDDKKYYNSALNSRLSLSRDTSKNQVFLKLSSLQTEDTAMYYCTRDYYSDGSFAYWGQGTLVTVSA VL: DVLMTQTPLSLPVSLGDQASISCKSSQSIVHSDGNTYLQWYLQKPGQSPKLLIYKVSNRFSGVPDRFSGSGSGTDFTLKISRVEAEDLGIYYCFQGSHVPPTFGTGTKLEIK
 |  | no binding (tested: 10 µg/mL) | no binding (tested: 5 µg/mL) | no binding (tested: 5 µg/mL) |  |  | no binding | anti-TM4SF20 antibody C9 (antibody, mouse IgG1, V domains shown, also called clone C9) VH: QVQLKESGPDLVQPSQTLSLTCTVSGFSLSSYGVHWVRQPPGKGLEWVGTMGWDDKKYYNSALNSRLSLSRDTSKNQVFLKLSSLQTEDTAMYYCTRDYYSDGSFAYWGQGTLVTVSA VL: DVLMTQTPLSLPVSLGDQASISCKSSQSIVHSDGNTYLQWYLQKPGQSPKLLIYKVSNRFSGVPDRFSGSGSGTDFTLKISRVEAEDLGIYYCFQGSHVPPTFGTGTKLEIK
